From patent US10626154B2, “Binding domains directed against GPCR:G protein complexes and uses derived thereof” (VIB VZW, priority 2011, dated 2020)
“Also recorded” adds a separate entry of the source. Where two headings read alike, the source gives them in different places. Values belong to the molecule of their own block, whether it stands above or below them.

What was measured:
β2AR-365:Gs complex [1] = target: T1, β2AR-365:Gs complex (UniProt P04896+P07550, E27Q/G16R/N187E); assay: analytical gel filtration: stability of the R:G complex in detergents; conditions: for stability of the R:G complex in detergent: 48 hrs at 4° C.
T1 construct: A β2AR construct truncated after residue 365; Flag (M1); made in house; host or cells: High 5 insect cells (Gs subunits)
Protocol: (§1) FIG. 4: Stabilizing effect of MNG-3 on the R:G complex. Panel a) Analytical gel filtration of β2AR-365:Gs complexes purified in DDM (in black), MNG-3 (in blue), or two MNG-3 analogs (in red and green) following incubation for 48 hrs at 4° C. In contrast to DDM the R:G complexes are stable in the MNG detergents. Panel b) Effect of diluting unliganded purified β2AR in DDM or MNG-3 below the critical micelle concentration (CMC) of the detergent as assayed by 3H-dihydro alprenolol (3H-DHA) saturation binding.
One challenge for crystallogenesis was to prepare a stable β2AR:Gs complex in detergent solution. The β2AR and Gs couple efficiently in lipid bilayers, but not in detergents used to solubilize and purify these proteins (Example 1). […] Apyrase, a non-selective purine pyrophosphatase, was added to hydrolyze GDP released from Gs on forming a complex with the β2AR. The complex was subsequently purified by sequential antibody affinity chromatography and size exclusion chromatography. The stability of the complex was enhanced by exchanging it into a recently developed maltose neopentyl glycol detergent (NG-310, Anatrace) (Chae et al., 2010).

unliganded purified β2AR = target: T2, unliganded purified β2AR (Homo sapiens, UniProt P07550); assay: 3H-DHA saturation binding after dilution of detergent below the CMC; conditions: diluted 1000-fold below the CMC; DDM after 20 sec, MNG-3 after 24 hrs
T2 construct: made in house
Protocol: as §1

β2AR-365:Gs complex [2] = target: T1, β2AR-365:Gs complex; assay: analytical gel filtration: effect of nucleotide analogs on the R:G complex; assay type: biochemical; conditions: for effect of nucleotides on the β2AR:Gs complex: 0.1 mM (FIG. 3A); for effect of phosphates resembling nucleotide phosphate groups on the complex: 5 mM
Protocol: FIGS. 3A-3G: Effect of nucleotide analogs, pH, and nanobodies on the stability of the β2AR:Gs complex. […] FIG. 3C, The pH limit was determined to guide the preparation of crystallization screens. For the same purpose the effect of ionic strength (data not shown) was determined using NaCl at various concentrations.
To maintain the high-affinity nucleotide-free state of the complex, apyrase (25 mU/ml, NEB) was added after 90 min to hydrolyze residual GDP released from Gαs upon binding to the receptor.

[3] = target: T3, AVP:NT4LV2R:Gs complex (Arginine vasopressin receptor 2) (Homo sapiens, UniProt P30518); assay: SEC stability of the AVP:NT4LV2R:Gs complex; assay type: biochemical
T3 construct: The N-terminally fused T4L V2R construct (NT4L-V2R); His tag (only implied by nickel-NTA purification of the receptor); made in house; host or cells: Sf9 (NT4L-V2R); High 5 (Gs); E. coli WK6 (Nb35)
Protocol: Arginine vasopressin (AVP), also known as vasopressin, argipressin or antidiuretic hormone, is a natural ligand that activates Arginine vasopressin receptor 2.
Formation of a stable complex (FIG. 19, Panel a) was accomplished by mixing His tagged Gs heterotrimer at approximately 90 μM concentration with AVP bound NT4LV2R (90 μM) and NB35 (100 μM) in 0.1 ml buffer (10 mM HEPES, pH 7.5, 100 mM NaCl, 0.1% DDM, 1 mM EDTA, 3 mM MgCl2, 10 μM AVP) and incubated for 2 hours at room temperature. Next, the AVP:NT4LV2R:Gs complex was purified in two successive affinity purification steps. The purification was monitored by SDS-PAGE (FIG. 19). First, the complex was applied on a Ni-NTA column after adding 300 μl of 1% MNG in 10 mM HEPES, pH 7.5, 100 mM NaCl buffer onto the reaction mix. Following extensive washing with buffer, the complex was eluted in 0.2% MNG, 10 mM HEPES, pH 7.5, 100 mM NaCl AVP 10 μM with 200 mM imidazole. Next the complex was applied on a FLAG-tag affinity column, washed extensively in the same buffer containing 0.01% MNG and eluted with the FLAG-peptide. […] This complex was further purified by SEC on a superdex200 column in 10 mM HEPES, pH 7.5, 100 mM NaCl, 0.01% MNG, 1 mM EDTA, 3 mM MgCl2, 1 μM AVP). […]

[4] = test system: β2AR:Gs:BI167107 ternary complex; assay: analytical gel filtration (size exclusion chromatography) of nanobody binding to the ternary complex; set-up: species or system human β2AR; bovine Gαs, rat Gβ1, rat Gγ2; conditions: for epitope on the Gs heterotrimer relative to Nb37 (size exclusion chromatography): forms R:G:Nb:Nb37 complex
β2AR:Gs:BI167107 complex = assay: analytical size exclusion chromatography of the ternary complex in the presence and absence of GTPγS; assay type: biochemical, human β2AR; bovine Gαs, rat Gβ1, rat Gγ2
Protocol: The mutual effects of Nbs and the non-hydrolyzable GTP analog GTPγS on the integrity of the agonist:β2AR:Gs ternary complex was analyzed by analytical size exclusion chromatography in the presence and absence of GTPγS.

purified Gαs = target: T4, purified Gαs (Bos taurus, UniProt P04896); assay: Bodipy-GTPγS-FL fluorescence nucleotide binding assay on Gαs; assay type: biochemical, Bovine; conditions: 100 nM Bodipy-GTPγS-FL, 1 μM purified Gαs, increasing concentrations of nanobody, 300 seconds
T4 construct: made in house
Protocol: (§2) To investigate the effect of nanobodies (Nb35 and Nb37) on Gs alone, nanobodies were added together with bodipy-GTPγS-FL and various Gs protein preparations in 20 mM Tris-HCl, Ph 8.0, 3 mM MgCl2, 1 mM DTT in a final volume of 200 μL. Samples containing a heterotrimeric Gs protein also included 0.1% DDM. Bodipy-GTPγS-FL is a stable fluorescent GTP analog (λex≈470 nm, λem≈515 nm). Its fluorescence intensity increases upon G protein binding and Bodipy-GTPγS-FL can therefore be used for real-time measurements of nucleotide binding to G proteins (McEwen et al., 2001). Fluorescence was measured in a 96-well microtiter plate format on a M5 fluorescence plate reader (Molecular […]).
In a first experiment (FIG. 16), increasing amounts of Nb37 were incubated with 1 μM purified GαS and 100 nM Bodipy-GTPγS-FL and the fluorescence increase was measured on a short time scale (300 seconds) to minimize the accumulation of the hydrolysis product bodipy-phosphate (Jameson et al., 2005). The Gαs subunit of the heterotrimeric Gs protein was purified as described previously (Sunahara et al., 1997). […] In a similar experiment (FIG. 17), increasing amounts of Nb35 were incubated with 1 μM purified GαS and 100 nM Bodipy-GTPγS-FL.

[5] = target: T5, purified Gsαβγ heterotrimer (UniProt P04896+P54311); assay: Bodipy-GTPγS-FL fluorescence nucleotide binding assay on Gs heterotrimer; assay type: biochemical, bovine Gαs, rat Gβ1, rat Gγ2; conditions: 100 nM Bodipy-GTPγS-FL, 1 μM purified Gsαβγ heterotrimer, increasing concentrations of nanobody
T5 construct: made in house; host or cells: High 5 insect cells
Protocol: as §2
In another experiment (FIG. 18), increasing amounts of Nb35 were incubated with 1 μM of the purified Gs αβγ heterotrimer and 100 nM Bodipy-GTPγS-FL.

Molecule: CCCCCCCCCCCCO[C@@H]1O[C@H](CO)[C@@H](O[C@H]2O[C@H](CO)[C@@H](O)[C@H](O)[C@H]2O)[C@H](O)[C@H]1O [DDM, n-Dodecyl-β-D-maltoside]
stability of the R:G complex in detergent (β2AR-365:Gs complex [1]): significant dissociation
3H-DHA binding of β2AR after dilution of detergent (unliganded purified β2AR): loss in 3H-DHA binding

Molecule: Nc1nc2c(ncn2[C@@H]2O[C@H](COP(=O)(O)OP(=O)(O)O)[C@@H](O)[C@H]2O)c(=O)[nH]1 [GDP, guanosine diphosphate]
effect of nucleotides on the β2AR:Gs complex (β2AR-365:Gs complex [2]): disrupt the β2AR:Gs complex; also recorded: causes dissociation of the β2AR-365:Gs complex

Molecule: Nc1nc2c(ncn2[C@@H]2O[C@H](COP(=O)(O)OP(=O)(O)OP(O)(O)=S)[C@@H](O)[C@H]2O)c(=O)[nH]1 [GTPγS]
effect of nucleotides on the β2AR:Gs complex (β2AR-365:Gs complex [2]): causes dissociation of the β2AR-365:Gs complex

Molecule: CCCCCCCCCCC(CCCCCCCCCC)(CO[C@@H]1O[C@H](CO)[C@@H](O[C@H]2O[C@H](CO)[C@@H](O)[C@H](O)[C@H]2O)[C@H](O)[C@H]1O)CO[C@@H]1O[C@H](CO)[C@@H](O[C@H]2O[C@H](CO)[C@@H](O)[C@H](O)[C@H]2O)[C@H](O)[C@H]1O [MNG-3]
stability of the R:G complex in detergent (β2AR-365:Gs complex [1]): substantially stabilize the complex; also recorded: stable
stability of the β2AR:Gs complex in detergent at room temperature (β2AR-365:Gs complex [1]; room temperature for 24 hours): without any noticeable degradation
3H-DHA binding of β2AR after dilution of detergent (unliganded purified β2AR): maintained full ability to bind the radioligand

Molecule: CCOc1ccc2c(c1)C1(CCC(OCCN3CCOCC3)CC1)C(=O)N2S(=O)(=O)c1ccc(C(=O)NC(C)(C)C)cc1OC (stereo not shown) [SR121463, reference compound]
effect of antagonist on the AVP:NT4LV2R:Gs complex ([3]; 10 μM): disrupts the AVP:NT4LV2R:Gs complex

Molecule: CCCc1ccccc1OCC(O)CNC(C)C (stereo not shown) [^3H-dihydro-alprenolol]
effect of M96T and M98T receptor mutations on ligand affinity (T4L-β2AR; data not shown): did not affect ligand binding affinity

Molecule: O=C(O)P(=O)(O)O [forcarnet]
effect of phosphates resembling nucleotide phosphate groups on the complex (β2AR-365:Gs complex [2]): did not cause disruption of the complex

Molecule: CC(C)NCC(O)c1ccc(O)c(O)c1 (stereo not shown) [isoproterenol]
effect of M96T and M98T receptor mutations on ligand affinity (T4L-β2AR): two-fold decrease in affinity

Molecule: O=P(O)(O)OP(=O)(O)O [pyrophosphate]
effect of phosphates resembling nucleotide phosphate groups on the complex (β2AR-365:Gs complex [2]): did not cause disruption of the complex

Now from value to molecule, other results behind:

effect of nucleotides on the β2AR:Gs complex (β2AR-365:Gs complex [2]): disrupt the β2AR:Gs complex
Molecule: Nc1nc2c(ncn2[C@@H]2O[C@H](COP(=O)(O)OP(=O)(O)OP(=O)(O)O)[C@@H](O)[C@H]2O)c(=O)[nH]1 [GTP, guanosine triphosphate]

binding to the β2AR:Gs:BI167107 ternary complex by analytical gel filtration [4]: further confirmed
B1: Nb37: nanobody, SEQ ID NO: 4, binds the Gsα subunit (protein, listed as Lama glama)
VHH: QVQLQESGGGFVQAGGSLRLSCAASGSIFSKNTMAWFRQAPGKERELVAASPTGGSTAYKDSVKGRFTISRDSAKNTVLLQMNVLKPEDTAVYYCHLRQNNRGSWFHYWGQGTQVTVSSHHHHHHEPEA
protection of the ternary complex from dissociation by GTPγS (β2AR:Gs:BI167107 complex): insensitive to GTPγS treatment
protection of the ternary complex from dissociation by GTPγS (β2AR:Gs:BI167107 complex; listed as 37): protect the β2AR:Gs:BI167107 complex from dissociation
effect on GTPγS binding to Gαs alone (purified Gαs): blocks GTPγS binding to Gsα alone in a dose dependent manner; also recorded: inhibits GTPγS binding to Gαs

binding to the β2AR:Gs:BI167107 ternary complex by analytical gel filtration [4]: further confirmed
epitope on the Gs heterotrimer relative to Nb37 (size exclusion chromatography) [4]: bind separate epitopes
B2: Nb35: nanobody, SEQ ID NO: 1; binds Gs at the interface of Gα and Gβ subunits (protein, listed as Lama glama)
VHH: QVQLQESGGGLVQPGGSLRLSCAASGFTFSNYKMNWVRQAPGKGLEWVSDISQSGASISYTGSVKGRFTISRDNAKNTLYLQMNSLKPEDTAVYYCARCPAPFTRDCFDVTSTTYAYRGQGTQVTVSSHHHHHHEPEA
protection of the ternary complex from dissociation by GTPγS (β2AR:Gs:BI167107 complex): protects the complex from dissociation by GTPγS; also recorded: insensitive to GTPγS treatment
protection of the ternary complex from dissociation by GTPγS (β2AR:Gs:BI167107 complex; listed as 35): protect the β2AR:Gs:BI167107 complex from dissociation
effect on GTPγS binding to Gαs alone (purified Gαs): has no effect on GTPγS binding; also recorded: does not affect GTPγS binding to Gαs
effect on GTPγS binding to the Gsαβγ heterotrimer [5]: blocks GTPγS binding to the free Gsαβγ heterotrimer in a dose dependent manner; also recorded: inhibits GTPγS binding to the Gsαβγ heterotrimer
stability of the V2R:Gs:AVP complex with nanobody in SEC ([3]; complex of V2R, Gs, Nb35 and AVP): demonstrated the stability of this complex in SEC

binding to the β2AR:Gs:BI167107 ternary complex by analytical gel filtration [4]: further confirmed
epitope on the Gs heterotrimer relative to Nb37 (size exclusion chromatography) [4]: bind separate epitopes
B3: Nb36: nanobody, SEQ ID NO: 3, binds Gs (protein, listed as Lama glama)
VHH: QVQLQESGGGSVQAGGSLRLSCTVSGTIFSVTVMGWYRQAPGKQRELVAGFTNTRNTNYVDSVKGRFTISKDSAKNTMYLQMNSLKPEDTAVYYCNVRRWGGTNWNDYWGQGTQVTVSSHHHHHHEPEA
protection of the ternary complex from dissociation by GTPγS (β2AR:Gs:BI167107 complex): less sensitive to GTPγS treatment
protection of the ternary complex from dissociation by GTPγS (β2AR:Gs:BI167107 complex; listed as 36): protect the β2AR:Gs:BI167107 complex from dissociation
